Experiments:
[1] = biological target: Sorbitol dehydrogenase SmoS from Sinorhizobium meliloti 1021 (Sinorhizobium meliloti 1021); test: SEC
[2] = biological target: Sorbitol dehydrogenase SmoS from Sinorhizobium meliloti 1021 (Sinorhizobium meliloti 1021); test: crystal structure

stoichiometry N [1]: 4 | stoichiometry N [2]: 4
Substance: Sorbitol dehydrogenase SmoS from Sinorhizobium meliloti 1021 (enzyme)
